From patent US20260151494A1
Changes are numbered by the printed parent chain.

Key:
[1] = biological target: apical domain of CD71 (Screen 3: 'cynomolgus apical domain of human CD71') (cynomolgus (as paragraph 454 words it; ambiguous)); test: primary ELISA
[2] = biological target: apical domain of CD71 (Screen 3: 'cynomolgus apical domain of human CD71') (cynomolgus (as paragraph 454 words it; ambiguous)); test: primary ELISA, RLU ratio to HSA
[3] = biological target: human serum albumin (human) (UniProt P02768); test: primary ELISA of colonies, luminescence; negative control antigen
human serum albumin (human), sequence (P02768 25-609 limits assumed): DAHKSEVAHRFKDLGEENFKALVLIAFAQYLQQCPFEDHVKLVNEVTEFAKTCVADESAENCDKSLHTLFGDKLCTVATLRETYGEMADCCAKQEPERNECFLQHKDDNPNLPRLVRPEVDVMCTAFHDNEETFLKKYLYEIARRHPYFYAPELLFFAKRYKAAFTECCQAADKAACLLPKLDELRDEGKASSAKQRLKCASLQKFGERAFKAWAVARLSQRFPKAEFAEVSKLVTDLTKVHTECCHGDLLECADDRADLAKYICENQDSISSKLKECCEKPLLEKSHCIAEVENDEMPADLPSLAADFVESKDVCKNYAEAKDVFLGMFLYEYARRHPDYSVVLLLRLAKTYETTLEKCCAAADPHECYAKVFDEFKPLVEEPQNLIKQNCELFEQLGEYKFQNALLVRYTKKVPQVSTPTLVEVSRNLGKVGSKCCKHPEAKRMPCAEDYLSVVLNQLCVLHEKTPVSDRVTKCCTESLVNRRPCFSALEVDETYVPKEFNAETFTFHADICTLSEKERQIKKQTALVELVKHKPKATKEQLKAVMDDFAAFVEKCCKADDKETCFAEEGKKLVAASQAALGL

B1: CD71-binding FN3 domain SEQ ID NO: 267 (designed binder)
chain: MSLPAPKNLVVSRVTEDSARLSWTAPDAAFDSFEISYWEHTFNGEAIILFVPGSERSYDLTGLKPGTEYYVTIGGVKGGAWSPPLWAEFTT
[1]
  RLU: 6.05e+06 RLU
[2]
  Apical domain:HSA: 178

B2: CD71-binding FN3 domain SEQ ID NO: 283 (designed binder)
chain: MSLPAPKNLVVSRVTEDSARLSWTAPDAAFDSFEIAYQELSLWGEAIVLTVPGSERSYDLTGLKPGTEYYVHIGGVKGGIWSSPLSAYSTT
[1]
  RLU: 6.14e+06 RLU
[2]
  Apical domain:HSA: 229

B3: CD71-binding FN3 domain SEQ ID NO: 262 (designed binder)
chain: MSLPAPKNLVVSRVTEDSARLSWTAPDAAFDSFFIGYLEPQPPGEVIHLFVPGSERSYDLTGLKPGTEYNVTIQGVKGGFPSDPLVASFTT
[1]
  RLU: 7.2e+06 RLU
[2]
  Apical domain:HSA: 562

B4: CD71-binding FN3 domain SEQ ID NO: 266 (designed binder)
chain: B3 chain with V46A, H48Y, F50L, D83L, S88T
[1]
  RLU: 7.41e+06 RLU
[2]
  Apical domain:HSA: 206

B5: CD71-binding FN3 domain SEQ ID NO: 264 (designed binder)
chain: B3 chain with V46A, H48A, F50Y, D83E, A87V, S88H
[1]
  RLU: 6.23e+06 RLU
[2]
  Apical domain:HSA: 549

B6: CD71-binding FN3 domain SEQ ID NO: 294 (designed binder)
chain: B3 chain with P43L, V46A, D83E, V86I
[1]
  RLU: 7.4e+06 RLU
[2]
  Apical domain:HSA: 245

B7: CD71-binding FN3 domain SEQ ID NO: 281 (designed binder)
chain: B3 chain with V46A, H48A, F50Y, D83E, V86I, S88N
[1]
  RLU: 6.93e+06 RLU
[2]
  Apical domain:HSA: 413

B8: CD71-binding FN3 domain SEQ ID NO: 293 (designed binder)
chain: B3 chain with V46A, H48D, F50Y, D83H, S88T
[1]
  RLU: 6.72e+06 RLU
[2]
  Apical domain:HSA: 605

B9: CD71-binding FN3 domain SEQ ID NO: 295 (designed binder)
chain: B3 chain with V46A, H48D, F50Y, D83E, S88T
[1]
  RLU: 6.71e+06 RLU
[2]
  Apical domain:HSA: 474

B10: CD71-binding FN3 domain SEQ ID NO: 270 (designed binder)
chain: B3 chain with V46A, F50Y, D83E, V86I, S88N, F89S
[1]
  RLU: 6.3e+06 RLU
[2]
  Apical domain:HSA: 74

B11: CD71-binding FN3 domain SEQ ID NO: 279 (designed binder)
chain: B3 chain with V46A, F50Y, F80N, P81W, D83A, V86S, S88I
[1]
  RLU: 5.54e+06 RLU
[2]
  Apical domain:HSA: 680

B12: CD71-binding FN3 domain SEQ ID NO: 265 (designed binder)
chain: B3 chain with V46A, H48S, F50Y, S88H
[1]
  RLU: 6.76e+06 RLU
[2]
  Apical domain:HSA: 488

B13: CD71-binding FN3 domain SEQ ID NO: 290 (designed binder)
chain: B3 chain with V46A, F50Y, D83E, S88T
[1]
  RLU: 6.87e+06 RLU
[2]
  Apical domain:HSA: 158

B14: CD71-binding FN3 domain of SEQ ID NO: 101 (designed binder, not shown: small tags and cut ends)
chain: MLPAPKNLVVSRVTEDSARLSWTAPDAAFDSFGIGYWERRWYGEAIVLTVPGSERSYDLTGLKPGTEYEVTIRGVKGGGYSGPLSAIFTT
[3]
  HSA, RLU: 4350 RLU

B15: CD71-binding FN3 domain SEQ ID NO: 282 (designed binder)
chain: MSLPAPKNLVVSRVTEDSARLSWTAPDAAFDSFDIGYFELTWYGEAIVLTVPGSERSYDLTGLKPGTEYWVSIGGVKGGRFSEPLYARFTT
[1]
  RLU: 4.85e+06 RLU
[2]
  Apical domain:HSA: 365

B16: CD71-binding FN3 domain SEQ ID NO: 263 (designed binder)
chain: MSLPAPKNLVVSRVTEDSARLSWTAPDAAFDSFEIGYFENLYLGEAIVLTVPGSERSYDLTGLKPGTEYWVQIGGVKGGNWSSPLSAIFTT
[1]
  RLU: 5.51e+06 RLU
[2]
  Apical domain:HSA: 344

B17: CD71-binding FN3 domain SEQ ID NO: 292 (designed binder)
chain: B16 chain with F38W, L41A, L43K, W70V, Q72F, N80V, S83V, P84S
[1]
  RLU: 5.29e+06 RLU
[2]
  Apical domain:HSA: 355

B18: CD71-binding FN3 domain SEQ ID NO: 280 (designed binder)
chain: B16 chain with P26L, S83A
[1]
  RLU: 4.97e+06 RLU
[2]
  Apical domain:HSA: 160

B19: CD71-binding FN3 domain SEQ ID NO: 275 (designed binder)
chain: B16 chain with S83A, S86V, I88E
[1]
  RLU: 5.44e+06 RLU
[2]
  Apical domain:HSA: 515

B20: CD71-binding FN3 domain SEQ ID NO: 277 (designed binder)
chain: B15 chain with D34E, W42Y, S72Q, R80G, Y86S, R88I
[1]
  RLU: 5.75e+06 RLU
[2]
  Apical domain:HSA: 383

B21: CD71-binding FN3 domain SEQ ID NO: 268 (designed binder)
chain: B16 chain with L60P, S83A
[1]
  RLU: 5.8e+06 RLU
[2]
  Apical domain:HSA: 188

B22: CD71-binding FN3 domain SEQ ID NO: 278 (designed binder)
chain: B16 chain with Y58H, S83A
[1]
  RLU: 5.1e+06 RLU
[2]
  Apical domain:HSA: 641

B23: CD71-binding FN3 domain SEQ ID NO: 271 (designed binder)
chain: B16 chain with V14I, F38W, L41A, L43K, W70V, Q72F, N80V, S83V
[1]
  RLU: 4.94e+06 RLU
[2]
  Apical domain:HSA: 347

B24: CD71-binding FN3 domain SEQ ID NO: 289 (designed binder)
chain: B16 chain with G36A, N40I, L41A, Y42W, N80A, W81Y, S83T
[1]
  RLU: 5.2e+06 RLU
[2]
  Apical domain:HSA: 112

B25: CD71-binding FN3 domain SEQ ID NO: 274 (designed binder)
chain: B16 chain with G36V, F38W, N40Q, L41V, Y42G, L43V, N80G, W81F, S83E
[1]
  RLU: 4.64e+06 RLU
[2]
  Apical domain:HSA: 581

B26: CD71-binding FN3 domain SEQ ID NO: 284 (designed binder)
chain: B16 chain with F38W, L41A, L43K, W70M, Q72F, N80V, S83V
[1]
  RLU: 4.41e+06 RLU
[2]
  Apical domain:HSA: 363

B27: CD71-binding FN3 domain SEQ ID NO: 296 (designed binder)
chain: B15 chain with R80I, F81W, E83S, Y86S, R88I
[1]
  RLU: 4.82e+06 RLU
[2]
  Apical domain:HSA: 141

B28: CD71-binding FN3 domain SEQ ID NO: 276 (designed binder)
chain: B16 chain with G36A, N40L, L41D, L43V, N80T, S83G, T91I
[1]
  RLU: 4.54e+06 RLU
[2]
  Apical domain:HSA: 90

B29: CD71-binding FN3 domain SEQ ID NO: 285 (designed binder)
chain: B16 chain with P26T, F38W, L41A, L43K, W70V, Q72F, N80V, S83V
[1]
  RLU: 5.13e+06 RLU
[2]
  Apical domain:HSA: 368

B30: CD71-binding FN3 domain SEQ ID NO: 286 (designed binder)
chain: B16 chain with G36V, F38A, N40P, L41V, Y42R, L43F, N80E
[1]
  RLU: 5.31e+06 RLU
[2]
  Apical domain:HSA: 262

B31: CD71-binding FN3 domain SEQ ID NO: 272 (designed binder)
chain: B16 chain with G36A, F38G, N40A, L41A, L43D, V48A, T50L, S83A
[1]
  RLU: 4.66e+06 RLU
[2]
  Apical domain:HSA: 476

B32: CD71-binding FN3 domain SEQ ID NO: 269 (designed binder)
chain: B16 chain with L41D, L43F, W70V, Q72F, S83A
[1]
  RLU: 6.01e+06 RLU
[2]
  Apical domain:HSA: 481

B33: CD71-binding FN3 domain of SEQ ID NO: 117 (designed binder, not shown: small tags and cut ends)
chain: MLPAPKNLVVSRVTEDSARLSWTAPDAAFDSFFIGYLEPQPPGEAIWLLVPGSERSYDLTGLKPGTEYNVTIQGVKGGFPSTPLSAIFTT
[3]
  HSA, RLU: 3750 RLU

B34: CD71-binding FN3 domain of SEQ ID NO: 104 (designed binder, not shown: small tags and cut ends)
chain: B33 chain with W47H, L49I, L62Q, T82D, S85V, I87S
[3]
  HSA, RLU: 29400 RLU

B35: CD71-binding FN3 domain of SEQ ID NO: 100 (designed binder, not shown: small tags and cut ends)
chain: MLPAPKNLVVSRVTEDSARLSWTAPDAAFDSFYIAYAEPRPDGEAILLLVPGSERSYDLTGLKPGTEYSVLIHGVKGGLLSSPLVASFTT
[3]
  HSA, RLU: 7750 RLU

B36: CD71-binding FN3 domain of SEQ ID NO: 103 (designed binder, not shown: small tags and cut ends)
chain: B35 chain with L47I, L49G, V85S, S87Y, F88S
[3]
  HSA, RLU: 18200 RLU

B37: CD71-binding FN3 domain SEQ ID NO: 273 (designed binder)
chain: MLPAPKNLVVSRVTEDSARLSWTAPDAAFDSFEISYWEHTFNGEAIILFVPGSERSYDLTGLKPGTEYYVTIGGVKGGAWSPPLWAEFTT
[1]
  RLU: 6.05e+06 RLU
[2]
  Apical domain:HSA: 1060

B38: CD71-binding FN3 domain of SEQ ID NO: 105 (designed binder, not shown: small tags and cut ends)
chain: MLPAPKNLVVSRVTEDSARLSWTAPDAAFDSFHIVYHEPRPSGEAIWLWVPGSERSYDLTGLKPGTEYEVGIVSVKGGDLSVPLSAIFTT
[3]
  HSA, RLU: 3000 RLU

B39: CD71-binding FN3 domain of SEQ ID NO: 102 (designed binder, not shown: small tags and cut ends)
chain: MLPAPKNLVVSRVTEDSARLSWTAPDAAFDSFDIGYTEYGGYGEAIILQVPGSERSYDLTGLKPGTEYWVLIQGVKGGGSSVPLVAYFTT
[3]
  HSA, RLU: 4550 RLU
